Columns and labels:
[1] = tested on: H3K4me3, H3K9me3 and H3K27me3; conditions: previously demonstrated; cited from earlier work
GST-fusion CHD4 PHD2 = GST-fusion CHD4 PHD2 (Homo sapiens, UniProt Q14839); experiment: Pull-down of GST-CHD4 PHD2 by biotinylated histone peptides in the absence of 2; assay type: binding; conditions: absence of 2, Western blot
CHD4 PHD2 finger = CHD4 PHD2 finger (Homo sapiens, UniProt Q14839); conditions: read-out: Kd of CHD4 PHD2 for histone peptide; cited from earlier work
Sequence of CHD4 PHD2 finger (Q14839 449-496 limits assumed): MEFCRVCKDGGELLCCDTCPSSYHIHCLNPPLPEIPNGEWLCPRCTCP

Sequence of GST-fusion CHD4 PHD2 (Q14839 449-496 limits assumed): as above

Molecule | binding to trimethylated lysine peptides H3K4me3, H3K9me3 and H3K27me3 [1] | binding of GST–CHD4 PHD2 to biotinylated histone peptide (GST-fusion CHD4 PHD2) | Kd (CHD4 PHD2 finger) [µM]
O=S(=O)(O)c1cc2c(O)c(c1)Cc1cc(S(=O)(=O)O)cc(c1O)Cc1cc(S(=O)(=O)O)cc(c1O)Cc1cc(S(=O)(=O)O)cc(c1O)C2 [Compound 1, p-sulfonatocalix[4]arene] | equally well | – | –
H3K4me3: biotinylated histone H3 peptide (residues 1–20) trimethylated at Lys4 [Compound H3K4me3] | – | significantly weaker | ~2000
H3K27me3: biotinylated histone H3 peptide (residues 21–44) trimethylated at Lys27 [Compound H3K27me3] | – | no interaction | –
